Measured values: patent publication US20140018302A1 (published 2014)

Target: recombinant HDM2 17-125 (UniProt Q00987 17-125)
Test: FP competition with FITC-SAH-p53-8; FIG. 2B; axis prints HDMX, legend says HDM2

IC50: 216 nM
B1: SAH-p53-8 (peptide)
peptide: QSQQTFXNLWRLLXQN
modifications: not fully specified; amino acids at positions S20 and P27 (p53 numbering) replaced with synthetic olefinic residues joined by an i, i+7 hydrocarbon staple; acetyl-capped N-terminus in the competition FP assay
